Reference: the supplement of paper PMC9112550, “Optimization of the antimicrobial peptide Bac7 by deep mutational scanning” (BMC Biology, 2022)

System: Escherichia coli TOP10
Test: shrunken log2 fold change of peptide-encoding DNA abundance (4.5 h post-induction vs induction); higher = less antimicrobial activity (less host growth inhibition)
Conditions: time post-induction: 4.5 h; library: site-saturation at positions 5, 18, 19, 20
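Further: peptides expressed intracellularly from a pBAD plasmid library in pooled LB shake-flask culture, induced with 0.3% L-arabinose, DNA abundance read by NGS, three biological replicates, DESeq2 with apeglm shrinkage.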

Sequence | shrunken log2 fold change
RRIRLRPPRLPRPRPRPVYGPRP | -0.183
RRIRLRPPRLPRPRPRPWAAPRP | 0.15
RRIRLRPPRLPRPRPRPWCIPRP | 0.0272
RRIRLRPPRLPRPRPRPWCPPRP | 0.0721
RRIRLRPPRLPRPRPRPWCYPRP | -0.489
RRIRLRPPRLPRPRPRPWEDPRP | 0.0824
RRIRLRPPRLPRPRPRPWEEPRP | -0.0678
RRIRLRPPRLPRPRPRPWEQPRP | -0.206
RRIRLRPPRLPRPRPRPWFVPRP | -0.399
RRIRLRPPRLPRPRPRPWGDPRP | -0.176
RRIRLRPPRLPRPRPRPWGPPRP | -0.24
RRIRLRPPRLPRPRPRPWGVPRP | 0.0612
RRIRLRPPRLPRPRPRPWHKPRP | -0.0761
RRIRLRPPRLPRPRPRPWKKPRP | -0.279
RRIRLRPPRLPRPRPRPWKYPRP | -0.0875
RRIRLRPPRLPRPRPRPWNSPRP | -0.018
RRIRLRPPRLPRPRPRPWQNPRP | -0.195
RRIRLRPPRLPRPRPRPWQQPRP | 0.00911
RRIRLRPPRLPRPRPRPWRCPRP | 0.336
RRIRLRPPRLPRPRPRPWRMPRP | 0.0332
RRIRLRPPRLPRPRPRPWRNPRP | 0.00408
RRIRLRPPRLPRPRPRPWRTPRP | 0.0595
RRIRLRPPRLPRPRPRPWSWPRP | 0.0711
RRIRLRPPRLPRPRPRPWWSPRP | -0.0019
RRIRLRPPRLPRPRPRPYACPRP | -0.0291

Sequence | shrunken log2 fold change
RRIRLRPPRLPRPRPRPYAGPRP | 0.0235
RRIRLRPPRLPRPRPRPYATPRP | -0.246
RRIRLRPPRLPRPRPRPYDKPRP | -0.951
RRIRLRPPRLPRPRPRPYDLPRP | -0.0724
RRIRLRPPRLPRPRPRPYDWPRP | -0.218
RRIRLRPPRLPRPRPRPYFAPRP | -0.233
RRIRLRPPRLPRPRPRPYIDPRP | -0.00113
RRIRLRPPRLPRPRPRPYKQPRP | -0.0145
RRIRLRPPRLPRPRPRPYLIPRP | -0.274
RRIRLRPPRLPRPRPRPYMHPRP | -0.408
RRIRLRPPRLPRPRPRPYNDPRP | -0.0858
RRIRLRPPRLPRPRPRPYNEPRP | -0.78
RRIRLRPPRLPRPRPRPYNRPRP | -0.113
RRIRLRPPRLPRPRPRPYPKPRP | -0.0574
RRIRLRPPRLPRPRPRPYRHPRP | -0.628
RRIRLRPPRLPRPRPRPYSHPRP | -0.444
RRIRLRPPRLPRPRPRPYSMPRP | -0.924
RRIRLRPPRLPRPRPRPYTCPRP | -0.223
RRIRLRPPRLPRPRPRPYTHPRP | -0.925
RRIRLRPPRLPRPRPRPYTSPRP | -0.33
RRIRLRPPRLPRPRPRPYTVPRP | -0.121
RRIRLRPPRLPRPRPRPYVNPRP | -0.23
RRIRLRPPRLPRPRPRPYWAPRP | 0.216
RRIRLRPPRLPRPRPRPYWMPRP | -0.257
RRIRLRPPRLPRPRPRPYWYPRP | -0.542

Sequence | shrunken log2 fold change
RRIRMRPPRLPRPRPRPAAQPRP | 1.12
RRIRMRPPRLPRPRPRPACFPRP | 0.421
RRIRMRPPRLPRPRPRPADAPRP | 1.21
RRIRMRPPRLPRPRPRPADMPRP | 0.728
RRIRMRPPRLPRPRPRPADSPRP | 0.264
RRIRMRPPRLPRPRPRPAEAPRP | 0.917
RRIRMRPPRLPRPRPRPAESPRP | 0.419
RRIRMRPPRLPRPRPRPAFIPRP | -0.398
RRIRMRPPRLPRPRPRPAGPPRP | 0.484
RRIRMRPPRLPRPRPRPAGRPRP | 0.725
RRIRMRPPRLPRPRPRPAHLPRP | 0.0862
RRIRMRPPRLPRPRPRPAHMPRP | 0.281
RRIRMRPPRLPRPRPRPAIDPRP | 0.718
RRIRMRPPRLPRPRPRPAILPRP | 0.467
RRIRMRPPRLPRPRPRPAIMPRP | 0.284
RRIRMRPPRLPRPRPRPAIVPRP | -0.161
RRIRMRPPRLPRPRPRPAIYPRP | 0.0389
RRIRMRPPRLPRPRPRPAKNPRP | 0.816
RRIRMRPPRLPRPRPRPAPGPRP | 2.04
RRIRMRPPRLPRPRPRPAPIPRP | 0.618
RRIRMRPPRLPRPRPRPARRPRP | 1.35
RRIRMRPPRLPRPRPRPATEPRP | 0.996
RRIRMRPPRLPRPRPRPAVGPRP | 0.5
RRIRMRPPRLPRPRPRPAVLPRP | 0.0985
RRIRMRPPRLPRPRPRPAVNPRP | 0.0731

Sequence | shrunken log2 fold change
RRIRMRPPRLPRPRPRPAWDPRP | 0.869
RRIRMRPPRLPRPRPRPCAEPRP | 2.31
RRIRMRPPRLPRPRPRPCAYPRP | 0.227
RRIRMRPPRLPRPRPRPCCCPRP | 0.0604
RRIRMRPPRLPRPRPRPCCKPRP | -0.233
RRIRMRPPRLPRPRPRPCCWPRP | 0.787
RRIRMRPPRLPRPRPRPCFHPRP | -0.318
RRIRMRPPRLPRPRPRPCFRPRP | 0.123
RRIRMRPPRLPRPRPRPCFSPRP | -0.141
RRIRMRPPRLPRPRPRPCFWPRP | 0.237
RRIRMRPPRLPRPRPRPCGWPRP | 1.03
RRIRMRPPRLPRPRPRPCHWPRP | -0.022
RRIRMRPPRLPRPRPRPCIQPRP | -0.214
RRIRMRPPRLPRPRPRPCIYPRP | 0.0933
RRIRMRPPRLPRPRPRPCLNPRP | -0.0184
RRIRMRPPRLPRPRPRPCMKPRP | -0.125
RRIRMRPPRLPRPRPRPCNQPRP | -0.0399
RRIRMRPPRLPRPRPRPCPAPRP | 0.574
RRIRMRPPRLPRPRPRPCPPPRP | 0.106
RRIRMRPPRLPRPRPRPCQQPRP | 0.0325
RRIRMRPPRLPRPRPRPCSNPRP | 0.0191
RRIRMRPPRLPRPRPRPCSQPRP | -0.00549
RRIRMRPPRLPRPRPRPCYRPRP | 0.035
RRIRMRPPRLPRPRPRPDAMPRP | 2.44
RRIRMRPPRLPRPRPRPDCCPRP | 2.61

Sequence | shrunken log2 fold change
RRIRMRPPRLPRPRPRPDCMPRP | 2.24
RRIRMRPPRLPRPRPRPDCSPRP | 0.172
RRIRMRPPRLPRPRPRPDDCPRP | 0.681
RRIRMRPPRLPRPRPRPDDKPRP | 1.43
RRIRMRPPRLPRPRPRPDECPRP | 2.8
RRIRMRPPRLPRPRPRPDELPRP | 2.12
RRIRMRPPRLPRPRPRPDHFPRP | -0.0876
RRIRMRPPRLPRPRPRPDIAPRP | 0.0562
RRIRMRPPRLPRPRPRPDILPRP | 1.45
RRIRMRPPRLPRPRPRPDKAPRP | -0.041
RRIRMRPPRLPRPRPRPDKQPRP | 0.0746
RRIRMRPPRLPRPRPRPDNLPRP | -0.205
RRIRMRPPRLPRPRPRPDNNPRP | 0.274
RRIRMRPPRLPRPRPRPDPVPRP | -0.0377
RRIRMRPPRLPRPRPRPDQFPRP | -0.00541
RRIRMRPPRLPRPRPRPDRHPRP | 0.0052
RRIRMRPPRLPRPRPRPDRKPRP | 0.0503
RRIRMRPPRLPRPRPRPDRTPRP | 0.52
RRIRMRPPRLPRPRPRPDSRPRP | -0.00783
RRIRMRPPRLPRPRPRPDTSPRP | 1.47
RRIRMRPPRLPRPRPRPDTTPRP | 0.536
RRIRMRPPRLPRPRPRPDVSPRP | 2.14
RRIRMRPPRLPRPRPRPDVVPRP | -0.0061
RRIRMRPPRLPRPRPRPEASPRP | 3.48
RRIRMRPPRLPRPRPRPECEPRP | 0.206

Sequence | shrunken log2 fold change
RRIRMRPPRLPRPRPRPECIPRP | 1.61
RRIRMRPPRLPRPRPRPEDSPRP | 0.0648
RRIRMRPPRLPRPRPRPEEVPRP | 0.00922
RRIRMRPPRLPRPRPRPEFIPRP | 0.01
RRIRMRPPRLPRPRPRPEGGPRP | 1.33
RRIRMRPPRLPRPRPRPEIEPRP | 0.0729
RRIRMRPPRLPRPRPRPEKEPRP | -0.0085
RRIRMRPPRLPRPRPRPENCPRP | 0.0159
RRIRMRPPRLPRPRPRPENHPRP | 0.0929
RRIRMRPPRLPRPRPRPENVPRP | -0.0285
RRIRMRPPRLPRPRPRPEQFPRP | 0.216
RRIRMRPPRLPRPRPRPEQPPRP | 0.395
RRIRMRPPRLPRPRPRPEQQPRP | -0.0233
RRIRMRPPRLPRPRPRPERHPRP | 0.764
RRIRMRPPRLPRPRPRPESCPRP | 3.68
RRIRMRPPRLPRPRPRPESNPRP | 0.102
RRIRMRPPRLPRPRPRPESWPRP | 1.52
RRIRMRPPRLPRPRPRPETIPRP | 0.0625
RRIRMRPPRLPRPRPRPETNPRP | 2.42
RRIRMRPPRLPRPRPRPEVWPRP | 1.13
RRIRMRPPRLPRPRPRPEWSPRP | 0.721
RRIRMRPPRLPRPRPRPEWTPRP | 0.749
RRIRMRPPRLPRPRPRPEYIPRP | 0.0145
RRIRMRPPRLPRPRPRPFCNPRP | -0.148
RRIRMRPPRLPRPRPRPFDLPRP | 0.16
